Experimental data published in patent US20210032353A1 (NATIONAL HEALTH RESEARCH INSTITUTES, published 2021).

Assays:
[1] = target: T1, VEGFR3 IgD5 (individual recombinant immunoglobin-like domain 5 of VEGFR3) (UniProt P35916 422-552, limits assumed); experiment: cell-based competitive ELISA: R2C7-1 absorbed with the soluble domain, then bound to 293T/VEGFR3 cells, OD405
T1 construct: domain: IgD5
T1 sequence (looked up): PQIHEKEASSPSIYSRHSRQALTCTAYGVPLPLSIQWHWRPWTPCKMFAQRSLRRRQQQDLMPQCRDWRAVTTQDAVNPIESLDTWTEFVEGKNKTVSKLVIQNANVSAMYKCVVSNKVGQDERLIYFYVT
Method: (§1) Panel A, Cell-based competitive. ELISA. HEK293T cells expressing VEGFR3 (293T/VEGFR3) were coated in 96-well plates. The optimal concentrations of R2C7-1 and R2C9-11 mAbs were determined as described previously (data now shown). The optimal concentrations of R2C7-1 and R2C9-11 mAbs were absorbed with the designed doses of the individual immunoglobin-like domains of VEGFR3 (R3-IgDs) antigens, as indicated. The bound antibodies were immune-probed with secondary antibody conjugated with HRP, visualized by addition of ABTS, and measured at OD₄₀₅ using a microplate reader (SpectraMax). Data are represented as means±S.D. of percentage of isotype control (CTL) in triplicate. The epitope locations of R2C7-1 and R2C9-11 on the VEGFR3 antigen are indicated by the black lines spanning IgD6 in the schematics. Panel B, Native gel electrophoresis. The whole extracellular domain (R3-IgD1-7), domain 3-4 (R3-IgD3-4) and domain 6-7 (R3-IgD6-7) were constructed, expressed in the E. coli, and purified using the anti-Myc affinity purification system. The purity and molecular weight of each recombinant protein were visualized with a standard Western blot using anti-Myc antibody as probe (left). The binding of R2C7-1 and R2C9-11 to the VEGFR3 truncated antigens was evaluated with native gel electrophoresis to confirm the epitopes of R2C7-1 and R2C9-11 mAbs (middle and right, respectively).
(§2) The same methodology was adopted to define the epitopes of the antibodies on VEGFR3. To determine the optimal concentrations of the antibodies for VEGFR3, HEK293T/VEGFR3 transfectants were used as targets (data not shown). Subsequently, the antibodies with optimal concentrations were absorbed with individual recombinant extracellular domains of VEGFR3 (R3-IgDs) for competing the binding epitopes. Similarly, their major epitopes were both located in IgD6, but not in IgD7, of VEGFR3. To conform this finding, Western blotting analysis of different recombinant IgD proteins was carried out using native gel electrophoresis.

R3-IgD7 = target: T2, R3-IgD7 (human, UniProt P35916); experiment: as above
T2 construct: recombinant fragment; also called immunoglobin-like domain 7 of VEGFR3
T2 sequence (receptor fragment, looked up): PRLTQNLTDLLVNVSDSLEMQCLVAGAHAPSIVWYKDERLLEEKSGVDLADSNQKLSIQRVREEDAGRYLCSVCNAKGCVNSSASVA
Method: as §1, §2

R3-IgD4 = target: T3, R3-IgD4 (human, UniProt P35916); experiment: as above
T3 construct: recombinant fragment; also called immunoglobin-like domain 4 of VEGFR3
T3 sequence (receptor fragment, looked up): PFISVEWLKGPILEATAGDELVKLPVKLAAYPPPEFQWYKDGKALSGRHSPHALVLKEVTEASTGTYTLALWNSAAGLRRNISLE
Method: as §1, §2

VEGFR2 (KDR)-IgD 6-7 = target: T4, VEGFR2 (KDR)-IgD 6-7 (UniProt P35968 551-753); experiment: Biacore; antibody as flow analyte, KDR-IgD6-7 as ligand
T4 construct: domain: IgD6-7; GST-tagged recombinant protein from E. coli by the methods; also called recombinant IgD6-7 of VEGFR2; VEGFR2-ED Ig D6-7; not shown: GST tag from the pGEX-4T-1 vector

VEGFR2 (KDR)-IgD 4-7 = target: T5, VEGFR2 (KDR)-IgD 4-7 (human, UniProt P35968 328-753); experiment: Biacore; antibody as flow analyte, KDR-IgD4-7 as ligand
T5 construct: domain: IgD4-7; Expressed in E. coli; also called recombinant IgD4-7 of VEGFR2; VEGFR2-ED Ig D4-7

VEGFR3 (Flt-4)-IgD 4-7 = target: T6, VEGFR3 (Flt-4)-IgD 4-7 (UniProt P35916 331-764, limits assumed); experiment: Biacore; antibody as flow analyte, Flt 4-IgD4-7 as ligand
T6 construct: domain: IgD4-7; The methods describe no D4-7 construct of VEGFR3; tag and expression host are unknown; also called recombinant IgD4-7 of VEGFR3
T6 sequence (looked up): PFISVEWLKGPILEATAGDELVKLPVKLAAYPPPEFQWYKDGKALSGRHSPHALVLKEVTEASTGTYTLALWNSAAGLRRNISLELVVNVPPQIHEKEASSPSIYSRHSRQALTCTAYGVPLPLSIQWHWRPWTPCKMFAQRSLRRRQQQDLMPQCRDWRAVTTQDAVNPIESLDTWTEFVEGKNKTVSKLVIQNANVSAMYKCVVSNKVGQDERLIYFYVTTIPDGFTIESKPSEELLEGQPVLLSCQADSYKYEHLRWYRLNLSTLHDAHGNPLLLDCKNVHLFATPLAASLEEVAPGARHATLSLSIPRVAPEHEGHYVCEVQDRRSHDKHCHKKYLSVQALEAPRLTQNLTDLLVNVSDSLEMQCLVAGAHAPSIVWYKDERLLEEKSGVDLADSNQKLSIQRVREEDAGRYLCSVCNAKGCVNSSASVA

T5 sequence (P35968 328-753 limits assumed): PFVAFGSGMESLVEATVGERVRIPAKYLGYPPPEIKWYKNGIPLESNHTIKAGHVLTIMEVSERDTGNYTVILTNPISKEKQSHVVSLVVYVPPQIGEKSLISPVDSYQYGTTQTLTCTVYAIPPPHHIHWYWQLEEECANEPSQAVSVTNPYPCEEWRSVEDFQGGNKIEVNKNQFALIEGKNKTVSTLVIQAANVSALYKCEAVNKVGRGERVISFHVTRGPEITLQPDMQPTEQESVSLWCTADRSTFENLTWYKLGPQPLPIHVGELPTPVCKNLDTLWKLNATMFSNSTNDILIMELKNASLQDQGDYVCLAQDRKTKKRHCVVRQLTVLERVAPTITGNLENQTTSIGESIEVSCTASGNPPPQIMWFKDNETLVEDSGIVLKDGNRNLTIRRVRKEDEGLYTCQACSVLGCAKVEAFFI
T4 sequence (P35968 551-753): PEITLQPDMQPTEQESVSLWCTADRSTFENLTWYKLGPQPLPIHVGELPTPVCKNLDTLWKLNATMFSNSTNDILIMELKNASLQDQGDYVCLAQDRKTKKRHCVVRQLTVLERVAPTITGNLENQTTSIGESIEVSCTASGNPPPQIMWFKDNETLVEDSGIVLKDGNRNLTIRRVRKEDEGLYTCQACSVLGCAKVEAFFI

Row | Binder | binding result [1] | binding result (R3-IgD7) | binding result (R3-IgD4) | koff (VEGFR2 (KDR)-IgD 6-7) | koff (VEGFR2 (KDR)-IgD 4-7) | koff (VEGFR3 (Flt-4)-IgD 4-7) | kon (VEGFR3 (Flt-4)-IgD 4-7)
1 | R2C7-1 monoclonal antibody (antibody, V domains shown, Mouse monoclonal antibody purified from hybridoma supernatant; An IgG2a isotype antibody served as its control; also called R2C7-1 mAb) VH: EVQLQQSGPELVKPGASVKISCKASGYSFTDYFINWVIQRHGKSLEWVGRINPYNGGSFYNQKFKDKATLTVDKSSNIAHMELRSLASEDSAIYYCARSGGNGYDYWGQGTTLTVSS VL: DIVMTQAAPSVPVIPGESVSISCRSSKSLLHSNGNTYLYWFLQRPGQSPQLLIYRMSNLASGVPDRFSGSGSGTAFTLRISRVEAEDVGVYYCMQHLEYPYTFGGGTKVEIK | no binding (tested: 10 (unit not printed on the sheet)) | no binding (tested: 10 (unit not printed on the sheet)) | no binding (tested: 10 (unit not printed on the sheet)) | 1.1e-05 s⁻¹ | 0.0024 s⁻¹ | 0.0049 s⁻¹ | 1.5e+06 M⁻¹ s⁻¹
2 | R2C9-11 monoclonal antibody (antibody, V domains shown, Mouse monoclonal antibody purified from hybridoma supernatant; An IgG2a isotype antibody served as its control; also called R2C9-11 mAb) VH: QVQLQQPGAELVKPGASVKLSCKASGYTFTSYWMHWVKQRPGQGLEWIGEINPSNGRTNYNEKFKSKATLTVDKSSSTAYMQLSSLTSEDSAVYYCANLYFDVWGAGTTVTVSS VL: DIVMTQSPSSLSVSAGEKVTMSCKSSQNLLNSGNQKYYLAWYQQKPGQPPKLLIYGASIRESGVPDRFIGSGSGTDFTLTISSVQAEDLAVYFCQSDHSYPYTFGGGTKLEIK |  |  |  |  | 1.3e-05 s⁻¹ | 0.0034 s⁻¹ | 3.2e+06 M⁻¹ s⁻¹
